Test results as given in US10562947B2, “Compositions and methods for preventing or treating diseases, conditions or processes characterized by aberrant fibroblast proliferation and extracellular matrix deposition” (MOERAE MATRIX, INC., priority 2011, dated 2020).
Where a SMILES comes first, the peptide text is derived from it.

What was measured:
[1] = system: human fetal lung fibroblasts (IMR-90); assay: TGF-β1-induced myofibroblast activation in IMR-90 cells, α-SMA immunoblot; type: cell-based; details: 1 h pre-treatment, TGF-β1 2 ng/ml 48 h
Description: Cell lysates were immunoblotted against antibodies for α-SMA (a marker for myofibroblast activation) and GAPDH (loading control).

[2] = biological target: T1, JNK1α1(h) (Homo sapiens, UniProt P45983); assay: Kinase Profiling Assay; type: biochemical; details: 100 μM peptide
T1 construct: purchased Millipore
Summary of the method: (§1)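 Selectivity profiling: MK2-targeting peptides tested on 266 human kinases. All activity determinations done in duplicate.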

[3] = biological target: T2, ROCK-I(h) (Homo sapiens, UniProt Q13464); assay: Kinase Profiling Assay; type: biochemical; details: 100 μM peptide
T2 construct: purchased Millipore (IC50 Profiler Express service)
Summary of the method: as §1

[4] = biological target: T3, SAPK3(h) (Homo sapiens, UniProt P53778); assay: Kinase Profiling Assay; type: biochemical; details: 100 μM peptide
T3 sequence (P53778 1-367): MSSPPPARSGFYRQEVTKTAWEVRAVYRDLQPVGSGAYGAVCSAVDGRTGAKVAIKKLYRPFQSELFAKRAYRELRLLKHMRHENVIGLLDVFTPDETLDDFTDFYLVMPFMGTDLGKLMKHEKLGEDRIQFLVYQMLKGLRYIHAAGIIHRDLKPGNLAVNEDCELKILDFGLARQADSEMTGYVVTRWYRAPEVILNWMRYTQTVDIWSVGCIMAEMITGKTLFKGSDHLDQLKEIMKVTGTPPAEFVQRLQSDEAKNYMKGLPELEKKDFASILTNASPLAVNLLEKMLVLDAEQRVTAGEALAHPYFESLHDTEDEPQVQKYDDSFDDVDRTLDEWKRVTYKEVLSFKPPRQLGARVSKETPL
Summary of the method: as §1

[5] = biological target: T4, Plk3(h) (Homo sapiens, UniProt Q9H4B4); assay: Kinase Profiling Assay; type: biochemical; details: 100 μM peptide
T4 construct: purchased Millipore (IC50 Profiler Express service)
Summary of the method: as §1

[6] = biological target: Abl(M351T)(h) (Homo sapiens, UniProt P00519, M351T); assay: Kinase Profiling Assay; type: biochemical; details: 100 μM peptide
Summary of the method: as §1

[7] = biological target: PAK3(h) (Homo sapiens, UniProt O75914); assay: Kinase Profiling Assay; type: biochemical; details: 100 μM peptide
Summary of the method: as §1

[8] = biological target: T5, IRAK1(h) (Homo sapiens, UniProt P51617); assay: Kinase Profiling Assay; type: biochemical; details: 100 μM peptide
T5 construct: purchased Millipore
Summary of the method: as §1

[9] = biological target: T6, IRAK4(h) (Homo sapiens, UniProt Q9NWZ3); assay: Kinase Profiling Assay; type: biochemical; details: 100 μM peptide
T6 construct: purchased Millipore
T6 sequence (Q9NWZ3 1-460): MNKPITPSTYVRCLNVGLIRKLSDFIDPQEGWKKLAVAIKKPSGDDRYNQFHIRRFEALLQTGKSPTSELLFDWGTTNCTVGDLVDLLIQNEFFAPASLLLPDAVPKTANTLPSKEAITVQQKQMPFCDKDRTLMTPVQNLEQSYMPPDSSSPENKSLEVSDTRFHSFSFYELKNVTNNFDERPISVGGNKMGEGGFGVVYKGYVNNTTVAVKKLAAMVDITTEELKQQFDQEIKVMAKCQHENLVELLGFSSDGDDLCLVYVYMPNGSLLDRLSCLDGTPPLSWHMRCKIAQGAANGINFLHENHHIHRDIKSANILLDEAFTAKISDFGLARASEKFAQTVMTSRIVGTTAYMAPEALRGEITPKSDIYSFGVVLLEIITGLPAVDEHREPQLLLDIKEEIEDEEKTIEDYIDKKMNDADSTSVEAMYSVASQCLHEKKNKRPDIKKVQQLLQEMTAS
Summary of the method: as §1

[10] = biological target: PDGFRα(D842V)(h) (Homo sapiens, UniProt P16234, D842V); assay: Kinase Profiling Assay; type: biochemical; details: 100 μM peptide
Summary of the method: as §1

[11] = biological target: PAR-1Bα(h) (Homo sapiens, UniProt Q7KZI7); assay: Kinase Profiling Assay; type: biochemical; details: 100 μM peptide
Summary of the method: as §1

[12] = biological target: Snk(h) (Homo sapiens, UniProt Q9NYY3); assay: Kinase Profiling Assay; type: biochemical; details: 100 μM peptide
Summary of the method: as §1

[13] = biological target: PKA(h) (Homo sapiens, UniProt P17612); assay: Kinase Profiling Assay; type: biochemical; details: 100 μM peptide
Summary of the method: as §1

[14] = biological target: CK2α2(h) (Homo sapiens, UniProt P19784); assay: Kinase Profiling Assay; type: biochemical; details: 100 μM peptide
Summary of the method: as §1

T4 sequence (Q9H4B4 whole entry): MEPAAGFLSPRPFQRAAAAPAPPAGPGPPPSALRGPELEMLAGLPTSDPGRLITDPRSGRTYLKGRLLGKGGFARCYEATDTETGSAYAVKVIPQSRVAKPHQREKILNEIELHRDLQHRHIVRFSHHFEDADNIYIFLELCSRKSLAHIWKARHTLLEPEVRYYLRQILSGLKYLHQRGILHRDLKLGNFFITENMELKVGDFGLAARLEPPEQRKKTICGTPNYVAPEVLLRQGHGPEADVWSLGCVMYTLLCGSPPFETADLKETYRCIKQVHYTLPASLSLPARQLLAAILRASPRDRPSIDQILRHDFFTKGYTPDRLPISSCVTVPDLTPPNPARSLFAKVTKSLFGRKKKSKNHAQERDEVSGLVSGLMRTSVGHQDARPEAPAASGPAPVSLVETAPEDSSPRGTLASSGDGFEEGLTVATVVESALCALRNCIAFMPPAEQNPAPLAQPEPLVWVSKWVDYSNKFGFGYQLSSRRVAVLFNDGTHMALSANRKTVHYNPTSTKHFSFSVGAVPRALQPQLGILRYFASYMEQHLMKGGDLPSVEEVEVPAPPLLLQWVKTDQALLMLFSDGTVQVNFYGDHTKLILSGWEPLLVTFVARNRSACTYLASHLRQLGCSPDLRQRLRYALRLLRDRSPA
T2 sequence (Q13464 whole entry): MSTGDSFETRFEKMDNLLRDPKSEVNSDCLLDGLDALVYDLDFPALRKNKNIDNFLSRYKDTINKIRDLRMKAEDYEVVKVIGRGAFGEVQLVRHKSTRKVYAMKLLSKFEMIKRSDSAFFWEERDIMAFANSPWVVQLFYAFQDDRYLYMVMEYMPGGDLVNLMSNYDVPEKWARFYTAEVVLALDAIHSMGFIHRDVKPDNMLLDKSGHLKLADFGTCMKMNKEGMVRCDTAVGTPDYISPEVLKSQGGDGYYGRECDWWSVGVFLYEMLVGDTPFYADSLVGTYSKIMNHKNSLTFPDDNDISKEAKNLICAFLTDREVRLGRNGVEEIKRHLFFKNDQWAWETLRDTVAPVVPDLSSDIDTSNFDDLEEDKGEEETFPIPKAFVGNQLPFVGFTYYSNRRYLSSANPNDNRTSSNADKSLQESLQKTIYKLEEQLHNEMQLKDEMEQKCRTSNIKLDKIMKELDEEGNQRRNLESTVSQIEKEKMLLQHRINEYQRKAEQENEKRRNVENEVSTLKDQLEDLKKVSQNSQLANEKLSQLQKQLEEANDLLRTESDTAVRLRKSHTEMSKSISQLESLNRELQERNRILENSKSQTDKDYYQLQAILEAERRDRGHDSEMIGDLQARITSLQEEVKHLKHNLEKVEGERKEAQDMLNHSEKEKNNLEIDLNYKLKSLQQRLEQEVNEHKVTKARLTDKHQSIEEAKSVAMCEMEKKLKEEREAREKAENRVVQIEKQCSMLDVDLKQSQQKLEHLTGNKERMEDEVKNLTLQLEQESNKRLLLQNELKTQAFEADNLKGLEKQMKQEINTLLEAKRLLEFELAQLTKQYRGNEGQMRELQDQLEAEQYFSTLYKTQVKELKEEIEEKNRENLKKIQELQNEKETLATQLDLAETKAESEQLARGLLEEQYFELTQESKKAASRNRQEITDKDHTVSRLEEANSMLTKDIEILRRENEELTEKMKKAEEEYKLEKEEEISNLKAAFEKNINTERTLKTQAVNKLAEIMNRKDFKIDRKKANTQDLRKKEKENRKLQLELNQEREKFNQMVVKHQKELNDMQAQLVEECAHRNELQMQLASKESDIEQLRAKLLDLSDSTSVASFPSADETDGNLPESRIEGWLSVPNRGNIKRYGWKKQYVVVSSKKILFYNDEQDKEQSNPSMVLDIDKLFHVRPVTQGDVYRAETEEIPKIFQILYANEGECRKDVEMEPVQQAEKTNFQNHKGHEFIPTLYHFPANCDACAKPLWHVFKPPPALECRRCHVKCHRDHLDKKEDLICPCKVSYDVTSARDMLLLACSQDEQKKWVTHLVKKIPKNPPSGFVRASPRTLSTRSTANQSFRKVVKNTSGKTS
T5 sequence (P51617 whole entry): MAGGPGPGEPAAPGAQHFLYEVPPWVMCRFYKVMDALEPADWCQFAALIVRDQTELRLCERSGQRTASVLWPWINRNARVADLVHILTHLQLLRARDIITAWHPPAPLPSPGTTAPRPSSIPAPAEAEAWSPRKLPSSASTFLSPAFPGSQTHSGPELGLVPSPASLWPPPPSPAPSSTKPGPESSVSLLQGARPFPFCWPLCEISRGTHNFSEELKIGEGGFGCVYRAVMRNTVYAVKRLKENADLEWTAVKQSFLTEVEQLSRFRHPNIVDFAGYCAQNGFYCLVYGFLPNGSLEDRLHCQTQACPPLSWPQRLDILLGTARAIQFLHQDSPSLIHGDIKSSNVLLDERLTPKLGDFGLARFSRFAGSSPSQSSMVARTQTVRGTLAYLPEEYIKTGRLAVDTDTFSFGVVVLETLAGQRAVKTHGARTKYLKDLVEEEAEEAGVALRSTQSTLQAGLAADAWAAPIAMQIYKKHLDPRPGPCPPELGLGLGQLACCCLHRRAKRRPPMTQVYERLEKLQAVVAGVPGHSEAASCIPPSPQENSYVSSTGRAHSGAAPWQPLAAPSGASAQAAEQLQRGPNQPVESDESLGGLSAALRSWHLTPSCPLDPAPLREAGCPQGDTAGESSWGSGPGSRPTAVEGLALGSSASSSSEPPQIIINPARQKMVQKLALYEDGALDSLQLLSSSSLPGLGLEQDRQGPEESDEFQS
Snk(h), sequence (Q9NYY3 whole entry): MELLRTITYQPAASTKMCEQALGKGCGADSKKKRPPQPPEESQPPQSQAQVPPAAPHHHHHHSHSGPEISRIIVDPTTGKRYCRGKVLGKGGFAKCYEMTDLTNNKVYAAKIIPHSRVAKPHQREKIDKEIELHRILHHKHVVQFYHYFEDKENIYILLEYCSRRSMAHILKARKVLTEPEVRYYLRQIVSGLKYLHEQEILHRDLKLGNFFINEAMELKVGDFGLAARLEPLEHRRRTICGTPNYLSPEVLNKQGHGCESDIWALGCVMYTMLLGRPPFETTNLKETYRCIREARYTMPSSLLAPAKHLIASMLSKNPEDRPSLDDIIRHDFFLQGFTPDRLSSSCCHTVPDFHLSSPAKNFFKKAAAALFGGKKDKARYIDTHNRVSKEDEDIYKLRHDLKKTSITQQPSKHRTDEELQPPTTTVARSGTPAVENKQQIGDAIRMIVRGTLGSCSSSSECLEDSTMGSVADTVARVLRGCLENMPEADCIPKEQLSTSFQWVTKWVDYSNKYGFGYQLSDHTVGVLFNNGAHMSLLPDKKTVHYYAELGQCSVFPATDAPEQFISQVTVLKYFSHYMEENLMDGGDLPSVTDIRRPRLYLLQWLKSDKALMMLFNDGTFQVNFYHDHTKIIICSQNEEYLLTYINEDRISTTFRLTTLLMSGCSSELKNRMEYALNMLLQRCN
PAR-1Bα(h), sequence (Q7KZI7 1-725 isoform Q7KZI7-4): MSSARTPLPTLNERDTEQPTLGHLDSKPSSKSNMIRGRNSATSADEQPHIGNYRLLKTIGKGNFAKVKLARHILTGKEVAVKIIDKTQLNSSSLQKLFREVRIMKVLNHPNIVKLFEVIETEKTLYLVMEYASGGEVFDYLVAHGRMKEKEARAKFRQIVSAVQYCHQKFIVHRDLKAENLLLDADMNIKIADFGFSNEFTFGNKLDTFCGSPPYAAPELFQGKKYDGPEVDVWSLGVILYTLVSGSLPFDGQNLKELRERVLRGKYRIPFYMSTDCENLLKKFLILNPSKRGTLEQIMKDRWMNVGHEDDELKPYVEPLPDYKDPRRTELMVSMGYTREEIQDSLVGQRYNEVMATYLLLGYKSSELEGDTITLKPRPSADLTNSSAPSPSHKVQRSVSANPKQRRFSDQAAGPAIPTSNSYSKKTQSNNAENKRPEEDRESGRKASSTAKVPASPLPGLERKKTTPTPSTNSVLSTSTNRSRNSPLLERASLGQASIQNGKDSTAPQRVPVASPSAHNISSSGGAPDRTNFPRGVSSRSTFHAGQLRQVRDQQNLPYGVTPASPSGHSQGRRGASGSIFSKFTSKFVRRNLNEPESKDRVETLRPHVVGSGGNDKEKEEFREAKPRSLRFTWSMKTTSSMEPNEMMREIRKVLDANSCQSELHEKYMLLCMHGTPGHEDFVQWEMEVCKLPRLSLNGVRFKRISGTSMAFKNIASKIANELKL
T1 sequence (P45983 1-384 isoform P45983-2): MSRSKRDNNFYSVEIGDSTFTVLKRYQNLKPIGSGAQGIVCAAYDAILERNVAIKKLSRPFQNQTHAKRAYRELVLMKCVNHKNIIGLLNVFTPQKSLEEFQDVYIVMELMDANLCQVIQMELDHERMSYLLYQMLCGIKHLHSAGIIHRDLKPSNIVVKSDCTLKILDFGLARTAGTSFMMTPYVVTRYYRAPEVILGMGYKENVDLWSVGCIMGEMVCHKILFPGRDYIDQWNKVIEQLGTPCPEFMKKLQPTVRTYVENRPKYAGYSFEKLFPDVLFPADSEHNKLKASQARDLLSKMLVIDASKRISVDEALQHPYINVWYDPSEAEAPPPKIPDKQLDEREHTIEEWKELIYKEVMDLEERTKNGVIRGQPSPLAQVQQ
PAK3(h), sequence (O75914 whole entry): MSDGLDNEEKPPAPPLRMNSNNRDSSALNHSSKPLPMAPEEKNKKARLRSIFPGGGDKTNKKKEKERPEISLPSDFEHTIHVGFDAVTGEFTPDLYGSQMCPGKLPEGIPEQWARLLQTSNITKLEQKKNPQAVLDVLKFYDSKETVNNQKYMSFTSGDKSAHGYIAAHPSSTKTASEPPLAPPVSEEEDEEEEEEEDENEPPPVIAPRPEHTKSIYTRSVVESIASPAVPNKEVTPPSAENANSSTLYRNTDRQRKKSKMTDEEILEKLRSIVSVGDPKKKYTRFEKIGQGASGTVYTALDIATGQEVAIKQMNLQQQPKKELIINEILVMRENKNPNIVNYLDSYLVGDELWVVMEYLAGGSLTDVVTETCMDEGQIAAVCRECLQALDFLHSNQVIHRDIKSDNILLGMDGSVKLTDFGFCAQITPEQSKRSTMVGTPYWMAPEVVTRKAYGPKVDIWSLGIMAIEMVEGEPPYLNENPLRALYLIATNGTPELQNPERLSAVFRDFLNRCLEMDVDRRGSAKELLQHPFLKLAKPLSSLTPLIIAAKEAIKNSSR

Molecule | protein level of α-smooth muscle actin (α-SMA) [1] | JNK1α1(h) % activity [2] | ROCK-I(h) % activity [3] | SAPK3(h) % activity [4] | Plk3(h) % activity [5] | Abl(M351T)(h) % activity [6] | PAK3(h) % activity [7] | IRAK1(h) % activity [8] | IRAK4(h) % activity [9] | PDGFRα(D842V)(h) % activity [10] | PAR-1Bα(h) % activity [11] | Snk(h) % activity [12] | PKA(h) % activity [13] | CK2α2(h) % activity [14]
CC(C)C[C@H](NC(=O)[C@H](C)NC(=O)[C@H](CCCCN)NC(=O)[C@H](C)NC(=O)[C@H](CCCNC(=N)N)NC(=O)[C@H](C)NC(=O)[C@H](CCC(N)=O)NC(=O)[C@H](CCCNC(=N)N)NC(=O)[C@H](C)NC(=O)[C@H](C)NC(=O)[C@H](C)NC(=O)[C@H](CCCNC(=N)N)NC(=O)[C@H](C)NC(=O)[C@@H](N)Cc1ccc(O)cc1)C(=O)N[C@@H](C)C(=O)N[C@@H](CCCNC(=N)N)C(=O)N[C@@H](CCC(N)=O)C(=O)N[C@@H](CC(C)C)C(=O)NCC(=O)N[C@H](C(=O)N[C@@H](C)C(=O)N[C@@H](C)C(=O)O)C(C)C [MMI-0100] (H-YARAAARQARAKALARQLGVAA-OH; N-terminus and C-terminus assumed) | decreases in the levels | – | – | – | – | – | – | – | – | – | – | – | – | –
FAKLAARLYRKALARQLGVAA [MMI-0300] | – | 97% | 79% | 84% | 127% | 90% | 140% | 95% | 59% | – | – | – | – | –
HRRIKAWLKKIKALARQLGVAA (Mammalian) [MMI-0500] | – | – | 17% | 24% | 122% | 61% | – | 5% | 3% | 170% | 97% | 122% | 118% | –
KAFAKLAARLYRKALARQLGVAA [MMI-0400] | – | 98% | 73% | 79% | 129% | – | – | 93% | 59% | 118% | – | 131% | – | 96%
YARAAARQARAKALNRQLGVA (Mammalian) [MMI-0200] | no changes in the protein level | – | – | 97% | – | – | 50% | 101% | 110% | – | 110% | – | 110% | 88%
